The data set can be described thus: protease stability score; higher = more stable; yeast display proteolysis, trypsin and chymotrypsin.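 Also: log10 excess protease needed over predicted unfolded state with 0 meaning unfolded.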

In the case of “DEEAQKQAEHLIRNLEQGNEDQIERLADPNARFQYGNKEINGREEMSTWVRRYKKQARLEIKSVSADAQGDKITVDVHFVIDINGRPSTMRVNVVMSIDNGSINHMVFEIDEEQEKELNK”, the protease stability score is 0.202.

Consider “DEEAQKQFEEFLDVLETGDPKRLQDNMDEDARVVIGDKTITGREEAAKEWHKIRQEISVEIKHVHMEAQGDKLNATLDVVWNVNGRPHRFKFVIIMDFHNGRIKQIEIRMDERHLKKLRT”, for which the protease stability score was determined as 0.499.

“DEEAQKRAEELIRILQTGDPDKLMEMFDKDAHATIGDQTVRGREDMRRRQKELKETMDVKLDITDVKVTGEKIDIRIKATFNYNGQPAEDTIVFIIQQHNGRVQRFEVRIDEDVLRQLKK”: the protease stability score worked out at 0.184.

The sequence “DEEAQKRAQTFFHILEHGDPKKLSKLFDKDAKFVVGEQRINGMQQYEQWFRDVYKKIRVTMKLVSVHVTGNKIDIKAKVEWHVNGRPLTFDLDIKINFHNGKMKEAVFHVDSDFLRKLKR” registered a protease stability score of 0.63.

The sequence “DEEAQKTAEDFLRAFQDGNHEQLLKLMDKDAQAQYGDQRLHGREKLRQHIYELLKNIRLEYSIDDVKVDGNNVRIHMQYEAEVNGQPVKDKAKVDIVFHNGKIKTFMVHFSEEYVQTVRS” came in with a protease stability score of 0.903.

In the case of “DEEAQRLLEKAMKALEQNNPQQFVNLLDPNATMIVGDKVYHGRESARKALDDIRSTMRVEVKDVKASAQGDKVQARMRVILDHNGKPSDRTQNITVRVHNGKMTSVELKTDT”, the protease stability score came to 0.88.

“DEEAREILRRFFTALNTNDEDQLVELVDKDVKIQVGDKEIHGREELKEHQVESYRRSRVDFRVTDIKASGDKVTAKIVVSRESDGQPRKTTQRMEFRFENGHMKHVHEDSDG”: the protease stability score was determined as 0.064.

The sequence “DEEARKEIKKAARAYKTGDWQELVHQMDEDVKVEYGDHKIDGHEQVQKWVDENRKQLTMSVKSLSVELSGNTASVDMKHDARHNGRPRTQTAHIEIQAHNGRLKRVKIEYTQ” came in with a protease stability score of -0.178.

“DEEARKLVHRILEAWKHGDEEHFKEQFDPNVDVDVGDKRYHGRHTIATRVQRELDEIDIRIEVHHITVEGDRADMDATVVLNINGKPVHVRVTWVFQITNGVAVYMQLRVSEDQRREQES” returned a protease stability score of 1.15.

“DEEARNVFEEILKAIRHGDPDHAKNLADPNARIRVGDKKVDGMEQWATEMHHNWQEIRIHMRITSVDHQGEKVRLHLSRTSNHNGRPRKADIDLEMVATNGKLKSQKHSQKK” gave a protease stability score of 0.2.

“DEEARRVWHKLMDALRTGDPEKFRNNADPNARIQYGNETIHGMRDNARTVMTMLHRLDVEWEIKDVKVRPNRIDVIYVLRVHIDGKPYQVHIQADATFHNGKLQSIRKRVDEDEQRKLDR” had a protease stability score of 0.379.

Take “DEEASKKIKTLVQILNTGDPDKAVKLFDPNARFQVGDKEISGREQFKEVLKKLKHKMRNDIKVKHVEVNNGHANAHAVMTVQVNGQPDHFTFIMRIQWHNGVIEHREVQMDEDELRRYNS”: the protease stability score is 0.339.

For “DEEASKQLEEYLRALQTGDSHRVQQLLDPNAKARVGDHTYHGHKEILDWLNKLNEKMRFSIERLSVSVRGDQVEFSFKFDATFNGRPFHASQTMQINVHNGRLKKLTIQLDPEQLDTQRS”, the protease stability score was -0.088.

“DEEASKRFEKFQHLLRDGNEDRVQKLVDPNVKFDLGSTSLHGMEEVARTLVQRYRSIRIRQEIDTYEVKGDTVRFKQKVQWNINGQPFSDHITFEAHQTNGKFSHVVIRIDPQLLEELRK” gave a protease stability score of 0.503.

“DEEATKELREWLHNRTKNNEEELHKYADPNAKFVIGDKTYHGMEEAVESQVHKDKHMNIHIESIHMDADGEHVRASEVVTFEVNGKPFRYSFRYNVTMSNGRLKSQSVRVDERDEEQEKQ” returned a protease stability score of -0.325.

On to “DEEATKNAERLMRALNTNNEDEVLEMVDKNATMQYGDKTYHGREEISQAVDERRKEMRVHLRRVTVNAQGDKLDIKANMEVDHNGRPIKVNLRIEAKAHNGRITDIKIETDPELTRQRRT”, for which the protease stability score was 0.539.

Sequence “DEEAVEIAHEVNKALNENDEHRLRELFDPNAKIQYGDNVIKGSDNLVKDIRRKSKRMRVRFDVKSIDNQGDKVEIDANYRQTHDGEPRTRKVDAKLRVENGRIKHFSARFTP” registered a protease stability score of -0.044.

Turning to “DEEAVKKMMEEWHKALESKNDDQFRKIYKPNVEWVNGDTKRQGQEDVVKMLQKVQKDGAEFQVRDAKVEGDRARMVYDLNVGDKTATFTVEMDAEGGRVDRVQVEIDEKAKKVLTEG”, the protease stability score was found to be 0.294.

In the case of “DEEAVKRANEMVEAWEHGDESRFMKLVDPNAQVRVGDKEVHGKEDMNRSIQEESRQLRVHRRVESVESQGNEVKIDLVFTQNVNGQPIQQRVDVVITFRNGKAVDIQLDIPEDQQQQHRR”, the protease stability score was -0.131.

As to “DEEAVKRVEHFMKNIREGNEQKAREYADKNATIHVGDKTVHGREDLERWVRQVKEEQRMDVRSFHATADNGNVDVKVTAEIEHNGQPRHHHYTAQFNISNGKIQSVTVDDHP”, the protease stability score was -0.099.

As for “DEEAVKTLEHMFEAVRDGNPDEVKKQVDPNVKIEIGDKTYKGKDQWAQDVETKKDEMRFTYHSIEFKNEPNRVKISIDRTETHNGQPRRHHVDMEARVHNGVIVRMKAKESG”, the protease stability score was -0.124.

On to “DEEAVNIHKTILEAEQSGDPDKFRQNVDPNVRYRYGDKEIHGREQAAERVKEKRDQARFQFDSIHIKVHGDKARAHFDFVVDHNGNPHRMSFTVVFNAHGDKLEFEIIKFDPRMKKELDS”, for which the protease stability score was 0.198.

“DEEAVNLINRLLEARKYNDPDSMKRLADENAQFVIGDKEVKGMETYARHVVQTMSRWRIDIKSVHHQSRGSKAEVDVRAKVNVNGRPDTLSITYRAHVTNGRIKELEVRFDPDQHRKLTS” returned a protease stability score of 0.019.

Turning to “DEEAVRHYHEMVREEETGNEDEAMKYFDPNATVRIGDKTVKGKDSIRKWVRDRRDEMRVEIHQLNVHVSNGQIDVSVDFTKEHNGRPQTMQQKVRVTATNGKIKKVNNHDDG”, the protease stability score was -0.261.

In turn, “DEEAYRLFSEMEKARKDNDEEKLRELADEDVRFEVGDSVIKGMTRWATRVVQTAREQRFSYDIKRWHIEGDKVVVHREVRESHNGQPRSRTVVYRAHVDNGRVKSVTVEDTG” registered a protease stability score of 0.158.

Take “DEEDADRILKLLKKNNFEELARNADPNVHVRIGDTRIHGREEVTSHMKRLTDRIDHVDWRSMSVTGDRVVVRAVYTVNGDRIDFEIEIQFHNGRVVSVRFQARDEDDKHKYRKAEK”: the protease stability score turned out to be 0.428.

With “DEEDAEDVVRKVNKILRDGDWEKFVNLMDKNAHARIGDQTYSGRSAAEDIARDVHRQVDHVEIKRVEVQGNTVHIDMVVEHNGREEKRVMDLIITNGRLRMVEYQHG”, the protease stability score was -0.107.

Sequence “DEEDAEKILRTAAKAVENGDHKKLVDLGKDGVEYQLADEKAHGPEVMKKVLDYQRKLGVRVELKEVHHEGNKVVTVLVYYHGNTKLEVQIHATADGGKIDRVEVKVPETLKKQLKHG” registered a protease stability score of 0.137.

“DEEDAHEQVHRIVKALETGDPDQVVNQADENVRIHVGEKTVHGQEKVREFVEEYNEQVDDVNVRHVSLDGNKATVTIDIDVNGNKRRVHFRFQFDNGRVQTIRVDTS”: the protease stability score turned out to be 0.719.

For “DEEDAKNAVRAVEALVTGDPDKMSKLFDKHASVEVGDKRVRGREEIRELAEQLEREMRLRVEIKHVQIQGDKVDVKFDAQRHHNGRPDDNKQTMHLTAHDGRVKNMSITSNG”, the protease stability score is -0.376.

“DEEDAKRVEEMLEALRTGDWKKATDMADPDARFQIGDKRYHGMHQVAREWKNQYDQMRIEINVKEWNIHNGRVDLKFEQKNDHNGKPDNFRASATFQFHNGQLVEAQYQRDS” yielded a protease stability score of 0.634.

The sequence “DEEDAKVLKQVLENVESGDSKSAETLLDKDVKFVIGDKVLHGRTQYVDRVRRETKRMRVKRQVQHYEVNNGRVHMTIDIQYDIDGKPLRDQITLTAEFHNGRMQSLEVKMDRDFKRKVDK” showed a protease stability score of 0.313.

“DEEDANDMRHVWEVLDTGDEERFLQMVDPNVKVVIGDKEYHGRENLRKFLQDQKREMSERIKSIRVHDHNGRIKINAHATNQQNGQPHSFNIDAEAELHNGKITHLNVQTDG” registered a protease stability score of 2.17.

“DEEDANNVAEQMMEIVERGDEERASELADPNAKFNIGDKKYEGRENLQKAIRHFRQRADHLEIKSLSVTPGHLKMRFVVKHNGQRNEVVIHVKAHNGKIVEIQVRNS” displayed a protease stability score of 0.15.

In the case of “DEEDANRHVREFWKNVETGNEDDLRDLADPNARLFVGDKKYRGRSEMAKAFKEIRKNVDHFELKSVQEKGDKVKVVAVWNHNGRNVEMVVIFVAHNGRIKEVQVRHK”, the protease stability score turned out to be 0.233.

“DEEDAQTLQRVLNHGDPDEWVRLADENVHARVGDKTYSGREHLKTFWHKLREQVDEIEVKSVDISGDRVQADIIYVVNGKRIRVTMVAHVNNGRIKEYKIHYRNEEVRDQLREAQS” yielded a protease stability score of 0.793.

On to “DEEDDARKAAEALKAFFKGDPEKFRDLADEDVQVRIGDNVYTGRTEANEAVENFKRQVDHVEFKDLNNRGNKVFADVVVRFNGEDIRVTLYAEVHNGKLKYMQVDPTAQKQLEK”, for which the protease stability score came out at 0.65.

“DEEDDKEMEKAIRALLYGDPDKVKKLADPNVNIQYGDKEIQGREEVSKHVDNLRHESRMRVQTMDNDLSGDHAKFDVQYESNHNGKPDTRRVDINAKAHNGHVKHMQWNKDE” yielded a protease stability score of -0.25.

In turn, “DEEDDKKMAETLKRLHNTGNPDELLKHFDPDAKFQIGEKTVHGREQAQEFMKRIKDRVDHQSVDSIHAHNGQVNVQVKVEINGKTRVVDIVYHFHNGRFKQVVFDPRAIRRMKS” registered a protease stability score of 0.175.

Sequence “DEEDDKKMNELLKQIQTGNDQKVERLIDPNANMHIGNQDIHGSEDVRKWIEKITKELNITFKVNHFRVKGDKIKIKVKINVKHNGQPDSDTIDLVARVENGHFTRIELHMDEKRWKKQVS” showed a protease stability score of 1.15.

For “DEEDDKRIAEDVVRQLQTGNPDQARDQADPNAEFRVGDRTIHGRDSFRRLMKETRDEVDKVQVQDFEMHNGHFSVNLVFNINGKEKLVHMSAQFKNGTIKHLSVQDQ”, the protease stability score is -0.36.

Regarding “DEEDDRRTAKRFAENVMKGNQDEARKLADEDATVNVGDQHVHGREELARVMHDLRRQVDHIQLDSLEVQGNKADINVTMRVNGRHVTADITVTVHNGRVKQFSLNPEVAQEIKR”, the protease stability score was -0.345.

In the case of “DEEDEARKMMEELDKAWKTGDSERYAQLLDPNARMVIGDKEYHGRDDVRKWFHEMLRRVDHVQLHLTSIDIRNGKVDARAEVRLNHNGKDTSDTVIFRLQHDNGHIKIRSVKNK”, the protease stability score amounted to 0.251.

In turn, “DEEDEARTMADRIRHALENGDEQKFAEQADPNASVRIGDRTWHGRRQISNRLKEERERADHVELEIKSIKLHGDRVKIDFVLEQDINGRHETTQLTMTAELHNGNVRFKMMKEK” displayed a protease stability score of -0.332.

In the case of “DEEDEDWAEKVATTGNFDEAARDADQNATVKVGDKTWHGREEVTRAMDLLEKQADHVRVSRFKVENGEVNFHVVIEFNGNEIDVTANARFRNGRLTYFSIDARSEHESKSLQKLLE”, the protease stability score amounted to 0.497.

Turning to “DEEDEERFEELLKAEEDGDEDRMNELVDENAEFHYGDTVIDGMTDYAREVVHRLNELRWHIDWDDMKQSNGRIQVRAKLVVKVNGTPNNDDVERQVQWDNGRVHQMNERFDSKKHKEMDK”, the protease stability score is -0.158.

For the sequence “DEEDEEVVRQWLEAYKTGDPDQLKRNADPNARIQVGDKVLHGMEDAKTELKEQRDHQRFRFHMDSVSVHGNRVEITMKADVDVNGRPIHFTNSFVFTLHNGKIRHIDLQVPEELKHQMTK”, the protease stability score was -0.125.

Source of the values: the NTF2 design screens of Basanta et al. (2020).
